Measurements as given in patent US5624900A, “Peptide or its salts” (Kuraray Co., Ltd., priority 1990, dated 1997).
Non-standard residues stand in square brackets, D forms with d. Nle = CCCC[C@H](N)C(=O)O

Target: T1, human IL-1β (Homo sapiens, UniProt P01584)
T1 construct: purchased Amersham Japan
Assay: Binding activity for human IL-1: 125I-labelled human IL-1β retained on peptide-immobilized cellulose adsorbent
Settings: radioactivity remaining on 100 mg adsorbent (1 mg peptide fixed per g cellulose) after about 300 Bq 125I-labelled human IL-1β, room temperature 3 hours, 5 washes; γ counter
Protocol: Adsorbents each having fixed 1 mg of one of the peptides obtained in Examples 1 through 15 and the Comparative Example were prepared as follows. One gram of a granular cellulose (CM-CELLULOFINE CH, available from Seikagaku Kogyo Co., Ltd.) is suspended in 5 ml of dioxane purified by distillation in the presence of sodium metal. To the suspension thus obtained was added 0.05 g of N-hydroxysuccinimide and 0.1 g of dicyclohexylcarbodimide, and the mixture was shaken at a room temperature for 1 night. The mixture thus obtained was washed with a 0.02 mole/l phosphate buffer (pH: 7.4) and then filtered with suction. The granules thus obtained were mixed with 1 ml of 0.02 mol/l phosphate buffer or purified water containing 1 mg of each one of the peptides obtained in Examples 1 through 15 and the Comparative Example. The mixtures were shaken overnight at a temperature of 4° C. and filtered with suction.
From the thus prepared adsorbents, 100 mg each was weighed, and thereto was added 100 μl of 5% solution of bovine serum albumin in PBS (a 10 mM phosphate buffer solution containing 0.15M NaCl, pH: 7.4). The mixtures were incubated overnight at 4° C., then about 300 Bq of ^125 I-labelled human IL-1β (purchased from Amersham Japan) was added to them and the mixtures were incubated at a room temperature for 3 hours. The reaction mixtures thus obtained were washed 5 times with Tris buffer containing 0.2% of Triton X-100 and then tested for radioactivity remaining on the adsorbents with a γ counter.

T1 sequence (P01584 117-269): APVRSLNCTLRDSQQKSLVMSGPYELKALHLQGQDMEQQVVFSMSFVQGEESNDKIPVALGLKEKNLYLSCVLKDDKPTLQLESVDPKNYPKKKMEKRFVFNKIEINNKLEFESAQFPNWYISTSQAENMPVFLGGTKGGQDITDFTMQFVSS

| Compound | Radioactivity (cpm) |
| --- | --- |
| H-Val-Val-Arg-Asn-Ser-Ser-Tyr-Cys-Leu-Arg-Ile-Lys-Ile-Ser-Ala-Lys-OH (H-VVRNSSYCLRIKISAK-OH) [Example 1] | 922 |
| H-Lys-Tyr-Cys-Leu-Arg-Ile-Lys-Ile-Ser-Ala-Lys-Phe-Val-Glu-Asn-Glu-Pro-OH (H-KYCLRIKISAKFVENEP-OH) [Example 3] | 1171 |
| H-CLRIKIS-OH [Example 6] | 815 |
| H-Tyr-Cys-Leu-Arg-Ile-Lys-Ile-Ser-Ala-Lys-OH (H-YCLRIKISAK-OH) [Example 4] | 891 |
| H-Tyr-Ser-Leu-Glu-Ile-Lys-Ile-Ser-OH (H-YSLEIKIS-OH) [Comparative Example, reference compound] | 84 |
| H-Lys-Asn-Ser-Ser-Tyr-Cys-Leu-Arg-Ile-Lys-Ile-Ser-Ala-Lys-Phe-Val-Glu-OH (H-KNSSYCLRIKISAKFVE-OH) [Example 2] | 764 |
| H-Cys-Leu-Gln-Ile-Lys-Ile-Ser-OH (H-CLQIKIS-OH) [Example 8] | 678 |
| H-Lys-Cys-Leu-Gln-Ile-Gln-Ile-Ser-OH (H-KCLQIQIS-OH) [Example 9] | 1100 |
| H-Lys-Cys-Leu-Arg-Ile-Lys-Ile-Ser-OH (H-KCLRIKIS-OH) [Example 7] | 576 |
| H-Tyr-Cys-Leu-Arg-Ile-Lys-Ile-Ser-OH (H-YCLRIKIS-OH) [Example 5] | 840 |

Second part, the compound after the results:

| Radioactivity (cpm) | Compound |
| --- | --- |
| 1167 | H-Lys-Ile-Cys-Ile-His-Ile-Gln-Ile-Ser-OH (H-KICIHIQIS-OH) [Example 12] |
| 1427 | H-Lys-Ile-Cys-Ile-Arg-Ile-Gln-Ile-Ser-NH2 (H-KICIRIQIS-NH2) [Example 15] |
| 890 | H-Lys-Cys-Val-Gln-Val-Gln-Val-Ser-OH (H-KCVQVQVS-OH) [Example 14] |
| 45 | NCC(=O)O [Reference Example, glycine, reference compound] |
| 1373 | H-Lys-Ile-Cys-Ile-Arg-Ile-Gln-Ile-Ser-OH (H-KICIRIQIS-OH) [Example 10] |
| 1292 | H-K[Nle]C[Nle]R[Nle]Q[Nle]S-OH [Example 11] |
| 1245 | H-Lys-Ile-Cys-Leu-Arg-Ile-Gln-Ile-Ser-OH (H-KICLRIQIS-OH) [Example 13] |
